PMC4597100

Columns and labels:
[1] = biological target: MLL1(3745–3969) SET domain construct containing the WIN motif, AviTag, biotinylated (human) (UniProt Q03164)
[2] = biological target: MLL4(5308–5537) SET domain construct containing the WIN motif, AviTag, biotinylated (human) (UniProt O14686)

Chain of UniProt Q03164 (Q03164 3745-3969): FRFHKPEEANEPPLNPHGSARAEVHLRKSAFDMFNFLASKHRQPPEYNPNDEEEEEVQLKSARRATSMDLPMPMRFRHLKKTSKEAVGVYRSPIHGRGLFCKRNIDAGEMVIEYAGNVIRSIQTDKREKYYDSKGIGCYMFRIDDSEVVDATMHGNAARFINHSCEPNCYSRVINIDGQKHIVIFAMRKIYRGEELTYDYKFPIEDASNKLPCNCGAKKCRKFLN

ARTKQTARKSTGGKAPRY [histone H3 amino terminal peptide substrate (…-Y), unmodified]
KM (H3 peptide) of methyltransferase activity without WRAD, saturating SAM [1]: 430 µM | KM (H3 peptide) of methyltransferase activity without WRAD, saturating SAM [2]: 251 µM
